Test results taken from the DeepSol protein solubility set.

Experiment: soluble on expression in E. coli; label from the status in PepcDB or PDB records

Sequence	soluble on expression in E. coli
RVMDMKAPIKVYMTKKLLGVKPSTSVQEASRLMMEFDVGSLVVINDDGNVVGFFTKSDIIRRVIVPGLPYDIPVERIMTRNLITANVNTPLGEVLRKMAEHRIKHILIEEEGKIVGIFTLSDLLEASRRRLETAISAE	soluble
MKLERQKLLAKVAYLYYMEGKSQSEIANELGIYRTTISRMLAKAREEGLVRIEISDFNPEIFQLESYFKSKYHLKDIEIVSSRKDSDTSEIEKDLAHVAAAMIRKKIKENDKVGIAWGRTLSKVVEAMRPHPVSQVSFVPLAGGPSHINARYHVNTLVYEMSRRFQGSCTFINATLVQENANLAKGILTSKYFEGLMDNWEKLDVAIVGVGGKPKSNEQQWLDLLNQDDFQCLDEEAAVGEITCRFFNHSGDPVNQHLAKRTIGITLEQLQKVPNRIAVAHGNYKAAALLAVLKKGYINHLVTDFSTALNILRLDKDTFVDTIYQKS	not soluble
MAQIDFRKKINWHRRYRSPQGVKTEHEILRIFESDRGRIINSPAIRRLQQKTQVFPLERNAAVRTRLTHSMEVQQVGRYIAKEILSRLKELKLLEAYGLDELTGPFESIVEMSCLMHDIGNPPFGHFGEAAINDWFRQRLHPEDAESQPLTDDRCSVAVLRLRDGEEPLNELRRKIRQDLCHFEGNAQGIRLVHTLMRMNLTWAQVGGILKYTRPAWWRGETPETHHYLMKKPGYYLSEEAYIARLRKELNLALYSRFPLTWIMEAADDISYCVADLEDAVEKRIFTVEQLYHHLHEAWGQHEKGSLFSLVVENAWEKSRSNSLSRSTEDQFFMYLRVNTLNKLVPYAAQRFIDNLPAIFAGTFNHALLEDASECSDLLKLYKNVAVKHVFSHPDVEQLELQGYRVISGLLEIYRPLLSLSLSDFTELVEKERVKRSPIESRLFHKLSTRHRLAYVEAVSKLPSDSPEFPLWEYYYRCRLLQDYISGMTDLYAWDEYRRLMAVEQ	not soluble
MTNVCDLTDRKCKPCEGGVPPLEMEEAEKLLKQLEQGWQLADNKISRTFSFKNYYQTMAFVNAIAWVSHREDHHPDMMVGYDWCRVEYMTHAIGGLSENDFICAAKVDMLFKS	not soluble
MGSDKIHHHHHHMIEIGKRCTLEIVKRVDFGVYLNAHEFGQVLLPNKVAPQGCEVGDSVEVFLYLDSEDMVIATTKRPKAQVGQFAYLKAVATGPYGAFLDWGLDKDLMLPFGEQHREIEVGRSYLVYVYVNSADDRIVASSKIDKFLDRTPPPYRNGQEVSLIIAGTTDLGYKAIIDNGHWGVLYKNEVYQPLKFGQRIKGFIKRVRSDDKIDLILQRGAKEELDKHATAILMKLNQAGGFLPLTDKTDAEVIYAELAMSKKAFKKSIGGLYKQQKIAIEADGIRLTE	not soluble
MSLSNLTIDVQTVTQKGKKPYIEYQINRPSFHNFSDSKFQNKLNFYYKKSTDKFKTRLEKDAKKYYKETEGSSTPFHPYVANVDYKVSLNKPPLLSLYLNYYQYTGGAHGMYTWKANTFDLKEKKLLHLDDLFQQEDKYKEVIRAEIVRKIKQNEGIYFPDATEKVMSTKKFHFFLEPNNLVIYFPLYEIAPYSSGIPQFRIPYTLLREYLKPSYQNILIDNKEGHHHHHH	soluble
MGSSHHHHHHSSGLVPRGSHMHVQAKFSNNLNIFEYSIVIRKIFYLGPPGSFSQEAAEIFGSDLVPVRSISEIFHKISVTGDYGIVPIENSIEGPVNETLDGLFRHEDIYIVDHVEIPIEIFLASNCDTENIRRIYSHPHAIAEAGDYLERTENIEVIRTSSTSEAAKLASMDEAGAALCSMKAAQHYGLANTVKIESKSRNITRFILIGRERNVEGSRHIILCVIPDRPGSLHSLIGVLASRGINMNMIYSRPLRDTIWKYYFYIEFSGKLDEDLLLTMGKQSLRILYKGSFKCCR	soluble
MGNGGILCALKTDSCSMLVISNNVHLPDAEIELTAIRAQGAGGQNVNKVSSAVHLRFDIPASSLPPFYKERLLALRDSRITSDGVIILKAQQYRTQEQNRADALERLTELILSAIKVEKKRRPTKPTLGSKKRRLETKAKRGSIKAGRGKVDFLEHHHHHH	soluble
MGSDKIHHHHHHMDTKQTFLEDLKSRDNIKLSLMVMKIIFRETDKLICILADRTGEIKASVPLKDGDIKQGMVIQINGSKNVNLEVKSYKIIRDYNISDYLPTVKRPIEDIMNEIELYTNKYVLSKEGRALNDYFFKDEEFLEKFKKGIGGVSMHHNYIGGLAEHTLNVMKITAKLSEKYKCRRMEVAVLAAKLHDIGKVYEYDCNGPFKYTMRGQMEGHIVIGVELVDRAVRENLNLYPEDFVNRIKGCIVQHHGKLEFGSPREMNMEESFIINYADSIDATMNKISQLKEKTEPDTWSEFDRRIERKLYL	not soluble
MHHHHHHMSGGLTPDQAIDAIRGTGGAQPGCRALHAKGTLYRGTFTATRDAVMLSAAPHLDGSTVPALIRFSNGSGNPKQRDGAPGVRGMAVKFTLPDGSTTDVSAQTARLLVSSTPEGFIDLLKAMRPGLTTPLRLATHLLTHPRLLGALPLLREANRIPASYATTEYHGLHAFRWIAADGSARFVRYHLVPTAAEEYLSASDARGKDPDFLTDELAARLQDGPVRFDFRVQIAGPTDSTVDPSSAWQSTQIVTVGTVTITGPDTEREHGGDIVVFDPMRVTDGIEPSDDPVLRFRTLVYSASVKLRTGVDRGAQAPPV	soluble
MGSDKIHHHHHHMHKVMISRIKGTQDIAFEDIDYWHFAEEIIRNISHKYAFTEIRTPIFEATELFKRSVGESTDVVQKEMYTFEDKGGRSITLRPEGTASVARAFIENSFINLGSPVKLFYSGPMFRYEKPQAGRLRQFHQFGAEILGSESPLADFEIIEMAYSFLKELKINNAKLFINSIGCPACREDYKTALKEYYSDKLAGMCPDCQRRYETNVLRLLDCKIDKGLVQGAPGILDYLDSDCRSHFEELQWYLERAGIDYEVDQFLVRGLDYYTRTAFEIRSSSLGSQDQLVGGGRYDGLVEYIGGKSCPAVGFAIGLERIVMLLKSENVRINGPETSEVAILTFGREESVRGFDYAKRLRKMGVSTFVDVMERNMRNKMKHASRIGAKISLLIGKEEIERDIVTIKVMNDGSQFQVDSDYMADYVVDKLRDIS	not soluble
MGLREIEKVTVFCLANENTDISYEVNRALGEIRIYVPYDFMDFLALNSVEEKYKEFCKLVRQYVVPGLEENSTLSSSVVKGYIEESLDEIVKQNYEGIFLVGKTPKKSPSRKKIAILKGIHRVKGFQLRCEVYDEKGLKIRDQLLVEEVGNEMVYSRFLGTLKWESENLIVVQSKSSSWKEEIYL	not soluble
MFLLQAPLQRRILEIGKKHGITELHPDVVSYVSHATQQRLQNLVEKISETAQQKNFSYKDDDRYEQASDVRAQLK	soluble
MGSDKIHHHHHHEADNYEPPKVDLKDQIPIILIHGSGGNASSLDKMADQLMNEYRSSNEALTMTVNSEGKIKFEGKLTKDAKRPIIKFGFEQNQATPDDWSKWLKIAMEDLKSRYGFTQMDGVGHSNGGLALTYYAEDYAGDKTVPTLRKLVAIGSPFNDLDPNDNGMDLSFKKLPNSTPQMDYFIKNQTEVSPDLEVLAIAGELSEDNPTDGIVPTISSLATRLFMPGSAKAYIEDIQVGEDAVHQTLHETPKSIEKTYWFLEKFKTDETVIQLDYK	not soluble
GKKCFLTVRGNFSWNEDKIIENDDPRVQYPWMEKRGTNVNGRWGWIAEGLFTSEEEIMDHAKQFGEGHPGQISKVGDIKYKDLNGDGVIDDYDKCLIGQGDVPKIYYGFGADLQLGDFSVGALFAGNAKADRCLGGNAMYPFNDGSGITNLFANITDRWSADNPTNQDVFYPRLHHGNNANQNNMKTSTWWQKDVSFLRLKQLTIAYQLPKKLINQTFLKSARIYVMGTNLLTFSKFKLWDPELNTNNGTAYPNVRTYSVGVNVSF	not soluble
MSRIRSNNDNIIILTDEQRKTVGRIAGRSQNRNTSKKIADGPYFLPRYRIRDNAERSVGARFKSLPQKEQDEVVNEAFSNLREYLKKREPFYAKLRKANSKYSSKPKEREKSVDSNDEADRRNKGNKKTQKNASKNCQIEKSSNNSGILKKSGSGISVASKPKKSVAFAPGVYEDLSTDDDLEFLNSVIVNSDRPTSQCDNPARRMCGRPPTKHRDTEQSQEITGSKKQKIFPTPHEKPAWWSFRIPKKRAQ	soluble
MGSDKIHHHHHHMKHSDYSLIPTFVAIVEEKSYTKAAKRLGISQSAVSQGVTRLQAVFKDTLFIRGSRGVEPTQFSLDIYPTLASSVENIAFMMPEYKKFSAVKCEKQFVISSLSVFGFTILPPLSALMSQHAPLASVKIEPLNNHDFTNMLRSQHFDLVIDAHSNQYPQLRSKVIMEDTLCVMCRIDHPRLSGDSISIDEFLAEKHVTHSQLDQKGGYLSGKGLKEDEILNQRKIAWQAASIMEMLPVIECCDYIALLPQRLVDKYRHIYQLKQLHSNFLLDPIKVAMYWHSSRTNDPSHKWLREQIVKVTQQFNKL	not soluble
MGSDKIHHHHHHKETSEKPVLFPDYADVTIPYNIAPLNFKIENPHAEAFAVLKFGEEKIQVKEKGGQFYLPASDWRKLLKRATGKAIQVKLYAKDKEWLAYPEFSLFVAPEPMDSYLAYRLIEPGYELWNQMGIYQRNLEDYKQSPIMENKYSGQNCMNCHSFCMQNPDKMLFHMRDKYSGTYLIDGDKIEKLNTKTDQTISPLVYPSWHPSGKYVAFSVNQTSQSFHANDKNRVEVFDSQSDVVVYDTEKHEIISTPSIRTAKAFETFPTFSPDGKTLYFCSAEARSMPHEYSEVKYNLCSIAFDPVTRSFGSRIDTLYNAGKDGKSASFPRVSPDGKFLLYTLSGYGNFSIWHKDADLYLLDIASGISHSLQNANSTDTESYHSWSSNSRWIVFSSRRIDGLYTRPYFAYIDEEGNASKPFLLPQKDTDYYHRFMKSYNIPEFITGKVSSKIRALSTLAKEDKGIDVTYRK	not soluble
MAHHHHHHMYYIYFENVKDEKEKKECEEFIYQIYMMENIKKDAILKLKNEKNENLYLLYLYYKYYYMNDKENVLNEIKQLNTSSCNANILKSRIFFDNDLLDECFDLLENGTIEIKAAKIFFLLNINRQDIVNEIIKDFLHMNEEIPIIKIVLAIYYLFNDNNKESFLIFDDLESLYGSMINDHSNIILNGKAVASILNYEFNDAKEFLKNQINNGDILYNLITCSLYLYELDEANEYLTKLYDNYSSHDSLKVLKKIDDEVDNFVSEF	not soluble
MSLSRKYFGTDGIRGRVGEFPITPDFVLKLGWAVGMAFRRQGNCRVLIGKDTRSSGYMFESAFEAGLSASGADTLLLGPMPTPGIAYLTRTFHAEAGVVISASHNPHDDNGIKFFSGQGTKLPDDVELMIEELLDAPMTVVESARLGKVSRINDAAGRYIEFCKSSVPTSTDFNGLKVVLDCANGATYKIAPSVFRELGAEVTVLAASPNGLNINDKCGSTHLDGLQAAVVEHHADLGIAFDGDGDRVMMVDHTGAVVDGDELLFLIARDLQESGRLQGGVVGTLMSNLGLELALQELHIPFVRAKVGDRYVMAELLARNWMLGGENSGHIVCCQNTTTGDAIIAALQVLMALKHRGQTLAEARQGIRKCPQVLINVRFKGENDPLEHPSVKEASVRVTEQMGGRGRVLLRKSGTEPLVRVMVEGDEEASVRAHAEQLAKIVSEVCAEGHHHHHH	soluble
MTSGKIHNPLNRQHSELRSKNVSLSNGDPFTIALFGVDSNAQRKSENDGERSDTIMLLSINPKKQTTEIVSVPRDTQAEIVGKGTTEKINHAYAYGGPTMAVKSLEKLMNVPIDHYATVDMDGLHDMIDALGGVNVTSNDTFTTKGTNFVKGQSTHVDGDTAMAFIRSRKEEGAGGDFGRQERQQLILQAMANKMTSTSALTHFPSLINQIQKNVKTDLTLNDMNDIRKNYKNANTTVNRHQLEGQGGIQDDGLWYFIPNDDSKQSATEILNNNLQNLEHHHHHH	soluble
HDTILFFSNKGKVYRAKGYEIPEYGRTAKGIPIINLLEVEKGEWINAIIPVTE	not soluble
